Measurements from article PMC9936545, “Diurnal Fluctuations of Orexin-A and -B in Cynomolgus Monkey Cerebrospinal Fluid Determined by a Novel Analytical Method Using Antiadsorptive Additive Treatment Followed by Nanoflow Liquid Chromatography–High-Resolution Mass Spectrometry” (ACS Chemical Neuroscience, 2023).
Where no end group is shown, it is not given here.

Key:
[1] = Stability of OXA and OXB in real matrix (monkey CSF with 20 mM citric acid and 0.1% Tween 80); type: in vitro ADME, cynomolgus monkey
Procedure: Reproducibility was evaluated by intraday and interday assays of spiked quality control (QC) in the surrogate matrix (SQC) and in the real matrix (RQC). […] Carry-over was assessed by injecting blank samples immediately after a calibration standard at the upper limit of quantification.
Working IS solutions at 500 pg/mL were prepared by diluting the IS stock solutions with a mixture of 0.1% (w/v) bovine serum albumin and 20 mM citric acid and 0.1% (w/v) Tween 80 (final concentrations) in Dulbecco’s phosphate-buffered saline (PBS) as the surrogate matrix. The surrogate matrix was used as a blank matrix for the calibration curve, SQC samples for method qualification, and blank samples. […] RQC samples, which were monkey CSF containing 20 mM citric acid and 0.1% (w/v) Tween 80, were also prepared to confirm the parallel between the surrogate and real matrices. […] Stability was evaluated based on the difference from the initial sample. The processed sample stability was evaluated using three replicates of real matrix. […] The stored samples were reinjected with freshly processed calibration samples. The processed sample stability was evaluated to compare the back-calculated concentrations.

[2] = Recovery of spiked OXA and OXB during syringe and tube transfer in monkey CSF (nonspecific binding); type: physicochemical, cynomolgus monkey; conditions: nanoLC-HRMS; for recovery (%), spike recovery: spiked at final 100 pg/mL
Procedure: To overcome those problems, a mixture of 20 mM citric acid and 0.1% (w/v) Tween 80 (final concentrations) was added to the monkey CSF. […] Next, recovery during syringe transfer was assessed using the following procedure (Figure S2). […] Then, the spiked CSF was collected from the tube using a needle and a syringe. To the tube, 6 μL of 1M citric acid and 3 μL of 10% (w/v) Tween 80 were added, and the 300 μL of spiked CSF was returned from the syringe to the tube. The tube, the needle, and the syringe were rinsed by pipetting with CSF containing 20 mM citric acid and 0.1% (w/v) Tween 80 (final concentrations).
The samples were prepared in triplicate. […] The whole sample was removed from the tube using an injection needle (25G, Terumo Corporation, Tokyo, Japan) and a syringe (Terumo Corporation, Tokyo, Japan). Then, 1 M citric acid (6 μL) and 10% (w/v) Tween 80 (3 μL) were added to the empty tube to reach the final concentrations of 20 mM and 0.1%. The sample was returned from the syringe to the tube. The tube and syringe were then rinsed by pipetting five times with the CSF containing 20 mM citric acid and 0.1% (w/v) Tween 80. Finally, the whole sample was transferred to another tube. Recovery during tube transfer was assessed after repeating the procedure three times with monkey CSF containing 20 mM citric acid and 0.1% (w/v) Tween 80. The reference sample was prepared without syringe transfer, pipetting, or tube transfer. Recovery was calculated based on the quantitative values, which were the total values of endogenous and spiked orexins, in the testing samples to that in the reference sample.
CSF collection from cynomolgus monkey (A). Eppendorf Protein LoBind® tubes (1.5mL) were used for sample preparation. The syringe and needle used for CSF collection were washed by pipetting five times with collected CSF including anti- adsorptive additives to prevent non-specific adsorption to the instruments. Recovery test during syringe and tube transfer (B). Eppendorf Protein LoBind® tubes (1.5mL) were used for sample preparation. A tube containing neat CSF spiked with the standards for
The spiked CSF was collected from the tube using a needle and a syringe.
The tube, the needle, and the syringe were rinsed by pipetting five times w ith CSF containing citric acid/Tween 80.

[3] = OXA and OXB in cisternal CSF collected with and without antiadsorptive additives; type: in vivo, cynomolgus monkey; conditions: cisternal CSF at 17:00, collected on different days; additives 20 mM citric acid and 0.1% (w/v) Tween 80; N = 5 for OXA, N = 4 for OXB
Procedure: LoBind tubes were used for preparing the nanoLC-HRMS samples. The IS working solution (60 μL) was mixed with a CSF, calibration curve, SQC, or RQC (50 μL) sample. Samples for the calibration curves were added with freshly prepared calibration standards (5 μL) corresponding to 2.5, 5, 20, 25, 50, 100, and 250 pg/mL, while DMSO (5 μL) was added to other samples. The samples were mixed with 10% (v/v) phosphoric acid (20 μL) and then centrifuged at 18,360g for 5 min at 4 °C. The supernatant (120 μL) was loaded into an HLB μElution plate and washed with 200 μL of methanol/water mixture (5:95, v/v). Orexins and ISs were eluted with 200 μL of acetonitrile/water/formic acid (80:20:0.1, v/v/v). After centrifugation at 4283g for 5 min at 4 °C, the supernatant (180 μL) was evaporated to dryness under a stream of nitrogen gas at room temperature. The precipitates were reconstituted in 40 μL of acetonitrile/water/trifluoroacetic acid (TFA) (4:96:0.01, v/v/v). After centrifugation at 12,000g for 10 min at 4 °C, the supernatant (5 μL) was used for nanoLC-HRMS.
NanoLC-HRMS was performed on an EASY-nLC 1200 system (Thermo Fisher Scientific, Inc., Waltham, MA) and a Q Exactive HF-X Orbitrap mass spectrometer (Thermo Fisher Scientific) equipped with an electrospray ionization interface. […]

[4] = Processed sample stability in autosampler; type: physicochemical, cynomolgus monkey; conditions: autosampler at 10 °C
Procedure: Reproducibility was evaluated by intraday and interday assays of spiked quality control (QC) in the surrogate matrix (SQC) and in the real matrix (RQC). […] Carry-over was assessed by injecting blank samples immediately after a calibration standard at the upper limit of quantification. […] The preparation and storage of all CSF samples were conducted under the stable conditions described above.
Working IS solutions at 500 pg/mL were prepared by diluting the IS stock solutions with a mixture of 0.1% (w/v) bovine serum albumin and 20 mM citric acid and 0.1% (w/v) Tween 80 (final concentrations) in Dulbecco’s phosphate-buffered saline (PBS) as the surrogate matrix. The surrogate matrix was used as a blank matrix for the calibration curve, SQC samples for method qualification, and blank samples. […] RQC samples, which were monkey CSF containing 20 mM citric acid and 0.1% (w/v) Tween 80, were also prepared to confirm the parallel between the surrogate and real matrices. […] Stability was evaluated based on the difference from the initial sample. The processed sample stability was evaluated using three replicates of real matrix. […] The stored samples were reinjected with freshly processed calibration samples. The processed sample stability was evaluated to compare the back-calculated concentrations. […]

Orexin-A (QPLPDCCRQKTCSCRLYELLHGAGNHAAGILTL; not fully specified; ends and bridges not checked; UniProt O43612 34-66, looked up) [OXA, 33-amino acid peptide with N-terminal pyroglutamylation, amidation of the C-terminal leucine, and two intramolecular disulfide bridges]
percent difference in QC samples for stability evaluation from the initial sample ([1]; freeze–thaw (3 cycles, −80 °C), room temperature 2 h, −80 °C 60 days, real matrix QC in triplicate, within ±): ≤ 15%
stability in real matrix, three freeze–thaw cycles ([1]; monkey CSF with 20 mM citric acid and 0.1% (w/v) Tween 80, unspiked and spiked (25 and 125 pg/mL) QC samples in triplicate, three freeze–thaw cycles at −80 °C, nanoLC-HRMS): stable
stability in real matrix at room temperature ([1]; monkey CSF with 20 mM citric acid and 0.1% (w/v) Tween 80, unspiked and spiked QC samples in triplicate, room temperature for 2 h, nanoLC-HRMS): stable
stability in real matrix at −80 °C ([1]; monkey CSF with 20 mM citric acid and 0.1% (w/v) Tween 80, unspiked and spiked QC samples in triplicate, −80 °C for 60 days, nanoLC-HRMS): stable
recovery (%), tube transfer (3 times) ([2]; monkey CSF containing 20 mM citric acid/0.1% (w/v) Tween 80, three tube transfers, LoBind tubes, mean ± SD, N = 3): 105.2 ± 12.1%
recovery (%), syringe and tube transfer ([2]; monkey CSF spiked with OXA and OXB (3 μL of 10 ng each/mL in DMSO + 297 μL CSF), LoBind tube, 25G needle and syringe, 20 mM citric acid/0.1% (w/v) Tween 80 added after syringe collection, rinsed by pipetting five times, vs reference sample, mean ± SD, N = 3): 100.6 ± 9.4%
recovery (%), spike recovery ([2]; monkey CSF with 20 mM citric acid/0.1% (w/v) Tween 80, mean ± SD, N = 3): 107.1 ± 3.8%
recovery ([2]; monkey CSF with addition of 0.01% (v/w) Tween 80 alone): 106.1%
recovery (%), spike recovery ([2]; neat monkey CSF, no additives, mean ± SD, N = 3): 41.6 ± 3.9%
concentration ratios between samples without and with the antiadsorptive additives, mean [3]: 30.7%
time stable in autosampler (processed sample stability) ([4]; processed real-matrix samples, reconstituted in acetonitrile/water/TFA (4:96:0.01), three replicates): at least 48 h
percent remaining after 48 h, difference from the initial analysis ([4]; processed samples, 48 h, three replicates of real matrix, within ±): ≤ 15%
